The target of this assay is T1, Macaca fascicularis Urotensin II receptor (Macaca mulatta, UniProt Q8HYC3).
T1 construct: expressed in transfected cells
T1 sequence (Q8HYC3 1-389): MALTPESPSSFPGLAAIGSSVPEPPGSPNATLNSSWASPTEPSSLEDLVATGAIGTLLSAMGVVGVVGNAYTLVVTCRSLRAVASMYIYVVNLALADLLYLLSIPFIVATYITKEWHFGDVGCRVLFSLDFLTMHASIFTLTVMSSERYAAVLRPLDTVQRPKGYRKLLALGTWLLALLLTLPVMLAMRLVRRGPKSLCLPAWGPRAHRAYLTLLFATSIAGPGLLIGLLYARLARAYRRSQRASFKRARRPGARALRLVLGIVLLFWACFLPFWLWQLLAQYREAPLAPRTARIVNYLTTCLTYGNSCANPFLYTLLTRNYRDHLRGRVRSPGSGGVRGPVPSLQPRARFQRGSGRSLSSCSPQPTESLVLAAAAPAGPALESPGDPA
Put plainly: Radioligand binding with Scatchard plot analysis on a stable HEK 293 cell line transfected with the Urotensin II receptor. The conditions noted are these: radiolabeled ligand, single set of binding sites, transfected HEK 293 cells. From the text:
1. A stable cell line was developed from HEK 293 cells transfected with mammalian pCDN vector of the Macaca fascicularis Urotensin II receptor.

The record followed here is patent US20020058323A1, “Monkey urotensin II” (priority 2000, published 2002).

B1: Macaca fascicularis Urotensin II: Macaca fascicularis Urotensin II polypeptide of the invention (SEQ ID NO:2, 125 amino acids), ligand of a G-protein coupled receptor (protein)
chain: MYKLASCCLLFIGFLNPLFSLPLLDSGEVSLQLSAPHEDAPLTSEELERASLLQILPEMLLGAERGDSLRKADSSTNIFNPRGNLRKFQDFSGQDPDILLSHLLARIRKPYKKRETPDCFWKYCV
modifications: MACACA FASCICULARIS
B1 showed a Kd of 0.214 ± 0.065 nM.
